Literature values, collected in patent publication US8420067B2, “Targeted polylysine dendrimer therapeutic agent” (Starpharma Pty Ltd, priority 2006, dated 2013).
Where two headings read alike, the source gives them in different places.

Substance | stability of the conjugate in acidic conditions (acidic conditions (pH 4-6)) | stability of the conjugate in acidic conditions (pH 4) | stability of the conjugate in acidic conditions (pH 5)
α-methoxy-ω-{N-(2-methyl-s-octadecyloxy-[1,3]dioxan-5-yl)-amido}-polyethyleneglycol110 | not stable | – | –
α-methoxy-ω-{N-2-(3-hydroxypropyl-cholesterylcarbamate)-2-methyl-[1,3]dioxan-5-yl-amido}-polyethyleneglycol110 | not stable | – | –
α-methoxy-ω-{N-(2-cholesteryloxy-[1,3]dioxolan-4-yl)methylamido}-polyethyleneglycol110 | – | moderately less stable | very stable
α-methoxy-ω-{N-(2-octadecyloxy-[1,3]dioxolan-4-yl)methylamido}-polyethyleneglycol110 | – | good stability | good stability
